Common to all, as to assay: ELISA
Assay [1] concerns the target T1, human CD81 mutant V135A (human, UniProt P60033 1-236, limits assumed).
T1 construct: as m30; not shown: C-terminal V5 and 6xHis tags
T1 sequence: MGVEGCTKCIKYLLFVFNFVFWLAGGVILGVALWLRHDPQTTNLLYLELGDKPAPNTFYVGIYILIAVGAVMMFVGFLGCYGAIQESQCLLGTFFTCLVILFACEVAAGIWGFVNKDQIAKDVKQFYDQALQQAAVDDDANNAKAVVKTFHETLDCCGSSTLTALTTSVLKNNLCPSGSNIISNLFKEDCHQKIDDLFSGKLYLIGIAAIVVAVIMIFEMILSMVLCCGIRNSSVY
An outline of the steps:
(§1)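 Relative binding affinity was taken as the percentage of binding to unmodified CD81, corrected for V5-tag expression. The altered CD81 proteins, tagged with V5 and 6×His, were expressed in CHO cells for 48 hours, and 1% n-octylglucoside membrane extracts were loaded onto Ni-NTA His Sorb plates at 5 μg/100 μL/well (3 hours, 4° C). After 1 hour of antibody binding at room temperature, detection used HRP anti-human IgG4 with TMB at 450 nm.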

The target of another assay is T2, human CD81 mutant G158S (human, UniProt P60033 1-236, limits assumed).
T2 construct: as m30; not shown: C-terminal V5 and 6xHis tags
T2 sequence: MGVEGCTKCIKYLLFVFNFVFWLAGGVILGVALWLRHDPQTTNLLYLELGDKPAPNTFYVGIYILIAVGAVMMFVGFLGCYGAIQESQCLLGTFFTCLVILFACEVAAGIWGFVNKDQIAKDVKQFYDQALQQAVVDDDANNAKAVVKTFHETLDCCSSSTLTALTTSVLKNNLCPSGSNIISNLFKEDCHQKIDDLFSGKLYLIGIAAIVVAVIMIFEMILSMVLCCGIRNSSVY
An outline of the steps:
as §1

For another assay, the target named is T3, human CD81 mutant A164T (human, UniProt P60033 1-236, limits assumed).
T3 construct: as m30; not shown: C-terminal V5 and 6xHis tags
T3 sequence: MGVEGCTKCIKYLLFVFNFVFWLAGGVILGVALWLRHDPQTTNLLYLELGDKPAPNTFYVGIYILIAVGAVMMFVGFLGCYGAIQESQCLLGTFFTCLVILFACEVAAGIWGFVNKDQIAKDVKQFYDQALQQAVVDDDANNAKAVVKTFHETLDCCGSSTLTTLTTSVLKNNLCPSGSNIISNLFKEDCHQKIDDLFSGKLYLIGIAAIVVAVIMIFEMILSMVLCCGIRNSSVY
An outline of the steps: as §1

A further assay has as its target T4, human CD81 mutant D137A (human, UniProt P60033 1-236, limits assumed).
T4 construct: as m30; not shown: C-terminal V5 and 6xHis tags
T4 sequence: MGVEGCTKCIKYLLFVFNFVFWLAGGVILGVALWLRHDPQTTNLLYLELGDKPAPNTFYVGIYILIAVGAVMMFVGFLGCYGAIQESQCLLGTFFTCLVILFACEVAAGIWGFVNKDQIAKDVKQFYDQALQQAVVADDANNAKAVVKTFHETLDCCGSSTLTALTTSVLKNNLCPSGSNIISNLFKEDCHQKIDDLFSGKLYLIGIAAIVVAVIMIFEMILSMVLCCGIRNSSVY
An outline of the steps:
as §1

The target of a further assay is T5, human CD81 mutant V169A (human, UniProt P60033 1-236, limits assumed).
T5 construct: as m30; not shown: C-terminal V5 and 6xHis tags
T5 sequence: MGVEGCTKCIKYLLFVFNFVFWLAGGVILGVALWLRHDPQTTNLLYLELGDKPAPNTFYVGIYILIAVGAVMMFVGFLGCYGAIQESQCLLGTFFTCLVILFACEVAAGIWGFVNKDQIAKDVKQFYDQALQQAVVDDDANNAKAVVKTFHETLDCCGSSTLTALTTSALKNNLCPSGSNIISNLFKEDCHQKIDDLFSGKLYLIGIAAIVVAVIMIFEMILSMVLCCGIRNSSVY
The essentials:
as §1

Assay [2] concerns the target T1, human CD81 mutant V135A. The essentials:
as §1
This is another data set of the same source.

The next assay deals with T6, human CD81 mutant L165A (human, UniProt P60033 1-236, limits assumed).
T6 construct: as m30; not shown: C-terminal V5 and 6xHis tags
T6 sequence: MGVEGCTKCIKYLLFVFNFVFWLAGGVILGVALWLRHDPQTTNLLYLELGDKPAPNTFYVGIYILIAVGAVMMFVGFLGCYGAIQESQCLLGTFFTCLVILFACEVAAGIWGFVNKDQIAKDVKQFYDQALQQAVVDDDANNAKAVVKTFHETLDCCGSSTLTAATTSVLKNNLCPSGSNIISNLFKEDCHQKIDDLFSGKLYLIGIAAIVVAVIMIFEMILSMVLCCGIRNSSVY
An outline of the steps:
as §1

Assay [3] concerns the target T7, c138h human-chicken CD81 chimera (chicken; human, UniProt P60033 1-236).
T7 construct: as m30; not shown: C-terminal V5 and 6xHis tags
T7 chain: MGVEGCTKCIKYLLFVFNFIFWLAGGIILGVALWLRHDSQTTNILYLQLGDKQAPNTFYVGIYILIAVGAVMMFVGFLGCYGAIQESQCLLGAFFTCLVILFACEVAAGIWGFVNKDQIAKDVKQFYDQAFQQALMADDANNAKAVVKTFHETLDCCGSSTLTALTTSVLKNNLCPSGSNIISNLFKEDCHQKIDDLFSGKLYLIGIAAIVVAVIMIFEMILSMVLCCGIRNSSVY
Here is the method:
To identify the epitopes to which each of the anti-human CD81 antibodies (002-A07 and 005-001) bind, ELISA assays were performed using human-chicken CD81 chimera constructs listed in Table 6. Each construct was transiently expressed in CHO cells and its cell membrane fraction was solubilized with detergents and immobilized onto a plate.
As control antibodies, human IgG4 antibody (Acris Antibodies GmbH) and mouse IgG antibody were used. Human-chicken chimera protein was captured via His tag introduced into the C-terminal by adding the membrane fraction (5 μg/100 μL/well) prepared (1) above to Ni NTA His Sorb plate (QIAGEN) in the presence of 1% (w/v) n-Octylglucoside and incubating for 3 hours at 4° C. After washing with TBST (TBS, 0.05% (v/v) Tween 20) three times, an anti-human CD81 antibody or a control antibody (50 μL/well) was added and incubated for 1 hour at room temperature (RT). After washing, 2000 fold-diluted HRP-labeled anti-human IgG4 antibody (Mouse anti-human IgG₄ HRP clone:HP6023 Beckman Coulter) or 1000 fold-diluted HRP-labeled anti-mouse IgG antibody (Invitrogen) (50 μL/well) were added. The plate was incubated for 1 hour at RT and washed with TBST three times. And then, peroxidase activity was determined by TMB One solution (Promega; Code 53025). The reaction was stopped with 2 M H₂SO₄ (50 μL) and absorbance at 450 nm was measured.

Where two headings read alike, the source gives them in different places.

Experimental findings from patent publication US20150139990A1 (DAINIPPON SUMITOMO PHARMA, published 2015) are described below.

B1: 002-A07 IgG4 antibody (antibody)
heavy: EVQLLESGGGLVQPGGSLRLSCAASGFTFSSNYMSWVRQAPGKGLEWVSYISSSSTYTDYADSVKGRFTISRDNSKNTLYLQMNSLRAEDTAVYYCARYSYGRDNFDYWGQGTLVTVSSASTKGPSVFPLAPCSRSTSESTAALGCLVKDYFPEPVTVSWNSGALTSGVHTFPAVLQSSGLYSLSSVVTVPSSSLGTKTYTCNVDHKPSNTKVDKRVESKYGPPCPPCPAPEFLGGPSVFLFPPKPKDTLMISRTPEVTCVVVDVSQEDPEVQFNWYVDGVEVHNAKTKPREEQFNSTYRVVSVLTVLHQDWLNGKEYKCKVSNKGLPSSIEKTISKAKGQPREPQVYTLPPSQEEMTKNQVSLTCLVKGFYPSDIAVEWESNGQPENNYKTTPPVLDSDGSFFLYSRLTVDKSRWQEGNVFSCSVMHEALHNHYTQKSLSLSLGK
light: QSVLTQPPSASGTPGQRVTISCTGSTSNIGAGYDTHWYQQLPGTAPKLLIYGNSNRPSGVPDRFSGSKSGTSASLAISGLRSEDEADYYCQSYDTNLSVWVFGGGTKLTVLGQPKAAPSVTLFPPSSEELQANKATLVCLISDFYPGAVTVAWKADSSPVKAGVETTTPSKQSNNKYAASSYLSLTPEQWKSHRSYSCQVTHEGSTVEKTVAPTECS
notes: human IgG4 S228P, lambda light chain
For B1, the relative binding affinity with human CD81 mutant V135A [1], with human CD81 mutant G158S, in the assay with human CD81 mutant A164T, with human CD81 mutant D137A, with human CD81 mutant V169A and with human CD81 mutant V135A [2] was below 20% throughout. This molecule also displayed a relative binding affinity with human CD81 mutant L165A below 20%. In assay [3], the “absorbance at 450 nm relative to hCD81” value is below 10%.
